Data published in US20240132622A1 (Bristol-Myers Squibb, published 2024).
Numbering of substitutions follows the chain as printed. Names may count otherwise.

B1: hz20-13 (antibody, V domains shown)
VH: QVQLVQSGAEVKKPGASVKVSCKASGYTFTNYGISWVRQRPGQGLEWMGEIYPRSGNTYHNEKFKDRVTMTTDKSTSTAYMELRSLRSEDTAVYYCARSMITTRYWYFDVWGKGTTVTVSS
VL: DIVMTQSPDSLAVSLGERATINCRASESVDTYGNSFMHWYQQKPGQPPKLLIYLASNLESGVPDRFSGSGSGTDFTLTISSLQAEDVAVYYCQQNNEDPLTFGQGTKLEIK
notes: light constant region not tied to this antibody
B2: hz20-14 (antibody, V domains shown)
VH: B1 VH
VL: B1 VL with S80D
notes: as for B1
B3: hz20-3 (antibody, V domains shown)
VH: B1 VH with Q1E, R40A, T72A, E89D, Y95F, K113Q, T116L
VL: DIQMTQSPSSLSASVGDRVTITCRASESVDTYGNSFMHWYQQKPGKAPKLLIYLASNLESGVPSRFSGSGSGTDFTLTISSLQPEDFATYYCQQNNEDPLTFGQGTKVEIK
notes: as for B1
B4: hz20-2 (antibody, IgG1, V domains shown)
VH: B1 VH with R40A, K74T, E89D, K113Q, T116L
VL: B3 VL
notes: also called clone 20-based hz20-2 antibody
B5: hz20-6 (antibody, V domains shown)
VH: QVQLVQSGAEVKKPGASVKLSCKATGYTFTNYGISWVRQAPGQGLEWIGEIYPRSGNTYHNEKFKDRVTLTADKSSSTAYMEFRSLRSDDTAVYFCARSMITTRYWYFDVWGQGTLVTVSS
VL: B3 VL
notes: as for B1
B6: hz13-5 (antibody, IgG1, V domains shown)
VH: EVLLVQSGAEVKKPGASVKLSCTSSDFNIKDHFIHWVRQAPGKGLEWMGRIDPEDDETKYAPKFQDRVTMTADTSTDTAYMELSSLRSEDTAVFYCAGYGNYEGAMDYWGQGTLVTVSS
VL: DIQMTQSPSSLSASVGDRVTITCRASENVNNYGIGFMNWFQQKPGKAPKLLIYAASRRGSGVPSRFSGSGSGTDFTLTISSLQPEDFATYFCQQSKEVPYTFGQGTKVEIK
notes: also called clone 13-based hz13-5 antibody; parent hz13-5
B7: hz13-1 (antibody, V domains shown)
VH: B6 VH with L3Q, L20V, F94Y
VL: B6 VL with F40Y, F91Y
notes: as for B1
B8: hz13-2 (antibody, V domains shown)
VH: B6 VH with L3Q, L20V, F94Y
VL: B6 VL
notes: as for B1
B9: hz13-3 (antibody, V domains shown)
VH: B6 VH with L3Q, L20V, F94Y
VL: B6 VL with Q3V, I21L, L82M, V108L
notes: as for B1
B10: hz13-4 (antibody, V domains shown)
VH: B6 VH
VL: B6 VL with F40Y, F91Y
notes: as for B1
B11: hz13-6 (antibody, V domains shown)
VH: B6 VH
VL: B6 VL with Q3V, I21L, L82M, V108L
notes: as for B1
B12: hz13-7 (antibody, V domains shown)
VH: B6 VH with M48I, M70I, M81L
VL: B6 VL with F40Y, F91Y
notes: as for B1
B13: hz13-8 (antibody, V domains shown)
VH: B6 VH with M48I, M70I, M81L
VL: B6 VL
notes: as for B1
B14: hz13-9 (antibody, V domains shown)
VH: B6 VH with M48I, M70I, M81L
VL: B6 VL with Q3V, I21L, L82M, V108L
notes: as for B1
B15: hz13-5 D31E (antibody, V domains shown)
VH: B6 VH with D31E
VL: DIQMTQSPSSLSASVGDRVTITCRASENVNNYGIGFMNWFQQKPGKAPKLLIYAASRRGSGVPSRFSGSGSGTDFTLTISSLQPEDFATYFCQQSKEVPYTFGQGTKVEIKR
notes: IgG1.3f; also called clone 13-based hz13-5 D31E

Columns and labels:
[1] = molecular target: T1, recombinant human PAD4 (human, UniProt Q9UM07 1-663); experiment: cell-based or functional assay
T1 sequence (Q9UM07 whole entry): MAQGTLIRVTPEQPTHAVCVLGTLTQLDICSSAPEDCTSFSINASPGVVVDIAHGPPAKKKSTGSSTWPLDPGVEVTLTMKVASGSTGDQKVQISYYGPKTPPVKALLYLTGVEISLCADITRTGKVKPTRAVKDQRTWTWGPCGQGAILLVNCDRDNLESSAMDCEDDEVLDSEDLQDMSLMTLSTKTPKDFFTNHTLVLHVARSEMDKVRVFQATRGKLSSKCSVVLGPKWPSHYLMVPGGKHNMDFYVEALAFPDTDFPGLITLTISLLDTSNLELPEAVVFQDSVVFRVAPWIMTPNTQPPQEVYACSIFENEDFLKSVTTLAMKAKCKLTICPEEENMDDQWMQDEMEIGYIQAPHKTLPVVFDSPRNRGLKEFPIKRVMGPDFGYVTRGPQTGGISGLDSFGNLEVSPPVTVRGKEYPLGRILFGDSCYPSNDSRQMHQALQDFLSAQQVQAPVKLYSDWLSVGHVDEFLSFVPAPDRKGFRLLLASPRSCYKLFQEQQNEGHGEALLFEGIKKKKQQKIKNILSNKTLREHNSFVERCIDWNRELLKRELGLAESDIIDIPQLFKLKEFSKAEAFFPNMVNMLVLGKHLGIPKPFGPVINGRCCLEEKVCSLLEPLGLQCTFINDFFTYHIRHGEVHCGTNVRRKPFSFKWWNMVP

[2] = molecular target: T1, recombinant human PAD4; experiment: SPR 37 C, captured antibody, PAD4 analyte, 2 mM EDTA
Procedure: (§1) For SPR measurements, either an anti-human capture surface or Protein A surface (Cytiva catalog #29127555) was used. Anti-human capture surface was prepared by immobilizing anti-human capture antibody (Cytiva catalog #29234600) onto flow cells of a CM5 or CM4 biosensor following the manufacturer's amine coupling protocol (Cytiva catalog #BR-1006-33). SPR experiments were conducted at 37° C. using HBS-P (150 mM NaCl, 10 mM HEPES, pH 7.6, 0.05% Tween-20) (TEKNOVA catalog #H8032) with additional 150 mM NaCl and 1 mM or 2 mM CaCl₂) (see Table 2) or 2 mM EDTA (see Table 3) as running buffer. Antibodies were diluted to 1.5 μg/mL in the running buffer, and were captured across active biosensor flow cells at 10 μL/min for 15 to 30 seconds. […] The association and dissociation of the antibodies with PAD4 were measured. One 30 second injection followed by one 15 second injection of 10 mM glycine pH 1.5 was used to regenerate the Protein A capture surface between assay cycles. For anti-human capture surface, two 30 second injections of 3 M MgCl₂ was used for regeneration. SPR measurements for mAb20 and mAb 13 SPR were done in the presence of 2 mM CaCl₂). The remaining antibodies were tested in the presence of 1 mM CaCl₂).
(§2) Rate constants kₒₙ and koff were derived from reference flow cell- and 0 nM blank-subtracted sensorgrams, and were fit to a 1:1 binding model in Biacore® Insight Evaluation software version 3.0.12.15655. Deviations from 1:1 binding model were observed, which may be caused by increased dimerization of PAD4 at higher concentrations. The equilibrium dissociation constant, KD, was calculated as the ratio of rate constants koff/kₒₙ for each PAD4 antibody. For those antibodies that were tested in multiple SPR experiments, the average value and standard deviation from two or three separate experiments are listed in Tables 2 and 3.

[3] = molecular target: T1, recombinant human PAD4; experiment: SPR 37 C, captured antibody, PAD4 analyte, 1 mM CaCl2
Procedure: Their binding to human PAD4 was measured by Surface Plasmon Resonance (SPR). SPR measurements were performed with a Biacore® 8K, 8K+, or T200 instrument (Cytiva). The association rate constants, kₒₙ, dissociation rate constants, koff, and equilibrium dissociation constants, KD, of the antibodies with PAD4 were determined from these SPR measurements.
as §1
as §2, with “antibody.” for “antibody. For those antibodies that were tested in multiple SPR experiments, the average value and standard deviation from two or three separate experiments are listed in Tables 2 and 3.”

[4] = molecular target: extracellular matrix (ECM) proteins; experiment: ECM plate ELISA (Matrigel), 1 uM antibody, A450 over wells without sample
[5] = molecular target: T1, recombinant human PAD4; experiment: cell-based or functional assay; remark: listed apart in the source
[6] = molecular target: T1, recombinant human PAD4; experiment: cell-based or functional assay; remark: listed apart in the source

Binder	IC50 (average), PAD4 citrullination of peptide …, RapidFire MS [1] [pM]	Kd [2] [pM]	koff [2] [s⁻¹]	kon [2] [M⁻¹ s⁻¹]	Kd [3] [pM]	koff [3] [s⁻¹]	kon [3] [M⁻¹ s⁻¹]	ECM Score (1 µM) [4]	also measured
B1	52600	400	0.00018	440000	500	0.00019	390000	19	–
B2	56900	400	0.00018	450000	600	0.0002	340000	20	–
B3	58000	900	0.00031	340000	500	0.00023	500000	20	–
B4	73000	1000	0.00032	310000	1100	0.00029	290000	6	–
B5	64000	1200	0.00037	300000	600	0.00025	390000	16	–
B6	48200	100	0.00021	2.1e+06	100	0.00012	1.6e+06	1	IC50, citrulline ELISA on peptide …, 13.5 nM rhPAD4 [5]: 700 pM; IC50, citrulline ELISA on peptide …, 108 nM rhPAD4 [5]: 5020 pM
B7	125000	300	0.0004	1.3e+06	200	0.00015	880000	1	–
B8	96400	100	0.00025	2e+06	100	0.00012	1.7e+06	1	–
B9	23300	100	0.00021	1.9e+06	100	0.00013	1.5e+06	1	–
B10	115000	200	0.00032	1.4e+06	100	0.00013	930000	1	–
B11	39100	100	0.00023	1.7e+06	100	0.00012	1.6e+06	1	–
B12	170000	100	0.00025	2e+06	100	0.00015	1.2e+06	1	–
B13	62800	100	0.00016	1.9e+06	100	0.00014	1.7e+06	2	–
B14	76000	100	0.00019	2e+06	100	0.00016	2e+06	2	–
B15	–	306	0.000358	1.17e+06	147	0.000171	1.32e+06	–	mean IC50, PAD4 driven H3 citrullination (ELISA), 13.5 nM PAD4, with 100 ug/ml purified IgG of NHV sera (n=6) [5]: 9000 pM; mean IC50, PAD4 driven H3 citrullination (ELISA), 13.5 nM PAD4, with 100 ug/ml purified IgG of RA sera (n=21) [5]: 8200 pM; IC50 run 1, citrulline ELISA on peptide …, 13.5 nM rhPAD4 [6]: 340 pM; IC50 run 1, citrulline ELISA on peptide …, 27 nM rhPAD4 [6]: 1770 pM; IC50 run 1, citrulline ELISA on peptide …, 54 nM rhPAD4 [6]: 3130 pM; IC50 run 1, citrulline ELISA on peptide …, 108 nM rhPAD4 [6]: 6030 pM; IC50 run 2, citrulline ELISA on peptide …, 13.5 nM rhPAD4 [6]: 730 pM; IC50 run 2, citrulline ELISA on peptide …, 27 nM rhPAD4 [6]: 1260 pM; IC50 run 2, citrulline ELISA on peptide …, 54 nM rhPAD4 [6]: 3140 pM; IC50 run 2, citrulline ELISA on peptide …, 108 nM rhPAD4 [6]: 4290 pM; IC50 run 3, citrulline ELISA on peptide …, 13.5 nM rhPAD4 [6]: 370 pM; IC50 run 3, citrulline ELISA on peptide …, 27 nM rhPAD4 [6]: 890 pM; IC50 run 3, citrulline ELISA on peptide …, 54 nM rhPAD4 [6]: 2680 pM; IC50 run 3, citrulline ELISA on peptide …, 108 nM rhPAD4 [6]: 4650 pM
